± gives the standard deviation.
Assay: protein stability index of a GFP-peptide fusion (GPS, HEK-293T) (PSI 1-6); higher = more stable
[1] = treatment: DMSO, c terminus: a fixed tail appended
[2] = treatment: MLN4924 1 uM, 8 h, c terminus: a fixed tail appended
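Also: 24-mer peptide tiles fused after GFP, lentivirally expressed, FACS-sorted into six equal bins by GFP/DsRed ratio, decoded by Illumina sequencing, PSI is the read-weighted mean bin number.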

Sequence | protein stability index [1] | protein stability index [2] | protein stability index (treatment: DMSO, c terminus: native) | protein stability index (treatment: MLN4924 1 uM, 8 h, c terminus: native)
QLYTAYILENRPPGSLLCTVAASD [PCDHGC5] | 2.11 ± 0.24 | 2.18 ± 0.26 |  | 
PEPGRAGYPAPRDEGVLRPRAHA [HAGHL] |  |  | 3.29 ± 0.19 | 3.41 ± 0.28
TRILKHSPESSRGQCGENLAWASY [GLIPR2] | 2.38 ± 0.44 | 2.38 ± 0.18 |  | 
KGERGEDSSEEKHLEEPGETQNAF [CHGB] | 5.61 ± 0.19 | 5.62 ± 0.13 |  | 
QILPVLDFCKVFLISGVTLDNCVE [KLHL13] | 3.21 ± 0.41 | 2.49 ± 0.064 |  | 
ADFGLARIYSYQMALTPVVVTLWY [CDK4] | 3.52 ± 0.99 | 2.78 ± 0.81 |  | 
GSNPPYLPFRDASFGNCTYNLTIL [CDC14A] | 2.6 ± 0.69 | 2.8 ± 0.73 |  | 
SEHVLKKAHKYSELIILYEKKGLH [VPS39] | 2.08 ± 0.23 | 2.27 ± 0.34 |  | 
EFVIIDCRYPYEYEGGHIKGAVNL [CDC25A] | 2.47 ± 0.29 | 2.3 ± 0.43 |  | 
RLVLPIAYEFNPELVLVSAGFDAA [HDAC6] | 2.3 ± 0.57 | 2.4 ± 0.2 |  | 
RLPWAGQLTKELPLSPAFFGEDGI [PBXIP1] | 3.43 ± 0.44 | 3.49 ± 0.28 |  | 
DKLYHPECFMCSDCGLNLKQRGYF [PDLIM4] | 2.22 ± 0.18 | 2.23 ± 0.33 |  | 
AVMEFHVSEDFNKMNFIKTYPAHQ [WDFY1] | 1.99 ± 0.32 | 1.93 ± 0.28 |  | 
LRYQFSRPGPQSVPLQLSAHWQCG [FCHO1] | 2.2 ± 0.09 | 2.12 ± 0.13 |  | 
ACSAPGGLVPSEKPPMMPQAQPAI [C2CD2L] | 4.24 ± 0.15 | 4.18 ± 0.19 |  | 
RNGLHLPEQVQNEIKSMKKRMSEL [NLN] | 4.11 ± 0.33 | 4.4 ± 0.31 |  | 
NNPEYLRERNMAPDLRQDFNMMEQ [ADD1] | 4.74 ± 0.27 | 4.87 ± 0.18 |  | 
AREGLAAPPRRLRSRKVSCPLTRS [FCHO1] | 3.93 ± 0.12 | 4.13 ± 0.35 |  | 

Sequence | protein stability index [1] | protein stability index [2] | protein stability index (treatment: DMSO, c terminus: native) | protein stability index (treatment: MLN4924 1 uM, 8 h, c terminus: native)
RGRPRKLSKEYWDCLEGKKSKHAP [ELF3] | 4.18 ± 0.27 | 4.19 ± 0.47 |  | 
AGSTDDRIVVPQRGRSTRVPVASV [SPNS1] | 4.22 ± 0.077 | 4.39 ± 0.45 |  | 
GDIHLSPEEPAASTDPNIVRKKER [TAF7L] | 5.38 ± 0.32 | 5.43 ± 0.27 |  | 
LSSSIIHEIDSILGNKPYSKKDYR [KCNAB2] | 2.65 ± 0.26 | 3.24 ± 0.45 |  | 
VLVHVQKWDGKSTTIKRKREDDKL [FABP4] | 2.85 ± 0.46 | 2.85 ± 0.4 |  | 
APSKEEMLSWILRINLVAAIFSAP [PSD2] | 2.71 ± 0.32 | 3.03 ± 0.62 |  | 
SSSSECLEDSTMGSVADTVARVLR [PLK2] | 4.08 ± 0.22 | 4.03 ± 0.34 |  | 
RASALCDRHTKFFEEPEDPSNRSF [PPP2R2B] | 4.38 ± 0.19 | 4.49 ± 0.25 |  | 
EESASRQRFGEALQDQEKAWGFPE [ELOA2] | 5 ± 0.16 | 5 ± 0.31 |  | 
KENIEKDEDDVDQELANIDPTWIE [SRPK2] | 5.56 ± 0.28 | 5.53 ± 0.2 |  | 
QLRATAGSLILPPGPGGTMKRHSS [FCHO1] | 3.87 ± 0.16 | 3.91 ± 0.33 |  | 
KVDGPRSPSYGRSRSRSRSRSRSR [SRSF1] | 5.27 ± 0.26 | 5.46 ± 0.14 |  | 
ELFKKDPGFDRGQFHKQIAVMRGQ [PI4K2A] | 2.8 ± 0.33 | 3.03 ± 0.19 |  | 
YKGPLLEEQALTKAAEGGLSSPEF [FAM98B] | 4.41 ± 0.33 | 4.55 ± 0.27 |  | 
YGRDSFVRLLLEFKAEVDPLSDKG [ASB7] | 2.65 ± 0.74 | 2.37 ± 0.28 |  | 
GVSFSTVENELMISYLMFLQILVY [FAM98B] | 3.08 ± 0.45 | 3.22 ± 0.41 |  | 
TGPQLPESLEDVAMYISQEEWGHQ [ZNF263] | 4.67 ± 0.1 | 4.52 ± 0.29 |  | 
DKDVRLLVACCLADIFRIYAPEAP [PDS5B] | 3.08 ± 0.48 | 3.02 ± 0.08 |  | 
